The target in this test is Ribosome termination complex (70S ribosomes, fMet-STOP mRNA and fMet-tRNA^fMet) (E. coli). Put plainly: with RF3:GDP.

From publication PMC3988563 (2014) come the findings set out here.

B1: Fluorescein-labeled GAQ-RF1 (single-cysteine L82C or A220C) (natural protein)
chain: MKPSIVAKLEALHERHEEVQALLGDAQTIADQERFRALSREYAQLSDVSRSFTDWQQVQEDIETAQMMLDDPEMREMAQDELREAKEKSEQLEQQLQVLLLPKDPDDERNAFLEVRAGTGGDEAALFAGDLFRMYSRYAEARRWRVEIMSASEGEHGGYKEIIAKISGDGVYGRLKFESGGHRVQRVPATESQGRIHTSASTVAVMPELPDAELPDINPCDLRIDTFRSSGAGAQHVNTTDSAIRITHLPTGIVVESQDERSQHKNKAKALSVLGARIHAAEMAKRQQAEASTRRNLLGSGDRSDRNRTYNFPQGRVTDHRINLTLYRLDEVMEGKLDMLIEPIIQEHQADQLAALSEQE
modifications: fluorescein (fluorescein-maleimide) on the introduced cysteine
Molecule B1 displayed a koff of 0.08 s⁻¹.

Broadly, the koff is a measure of how fast the partners let go of each other. A lower koff goes with a long-lived complex.
